Consider 3 substances from publication PMC11168072.

Where “and” joins values, the source holds several entries; their conditions need not be identical. Identical values can stand only once.

For assay [1], the target named is DtpA, A-type dye-decolorizing peroxidase from Streptomyces lividans (Streptomyces lividans). Put plainly: AUC; sedimentation velocity, absorbance at 410 nm, 40,000 rpm, 20°C, 50 mM HEPES pH 7.0, 100 mM NaCl, protein 0.75-0.85 μM, c(S) model in SEDFIT.
For assay [2], the target named is DtpB, B-type dye-decolorizing peroxidase from Streptomyces lividans (Streptomyces lividans). Description: cryo-EM structure; single particle, Talos Arctica 200 kV, DtpB ~6 mg/mL with 8 mM CHAPSO, C1 symmetry, low resolution maps of quasi-hexamer (14.5 Å) and dodecamer (13.4 Å).
Assay [3] has the same target. Description: AUC; sedimentation velocity, absorbance at 410 nm, 40,000 rpm, 20°C, 50 mM HEPES pH 7.0, 100 mM NaCl, protein 0.75-0.85 μM, c(S) model in SEDFIT.
Assay [4] shares this target. Put plainly: cryo-EM structure; single particle, Titan Krios 300 kV, DtpB ~6 mg/mL with 8 mM CHAPSO, D3 symmetry imposed, 3.02 Å map of the hexamer.
Assay [5] addresses DtpAa, A-type dye-decolorizing peroxidase from Streptomyces lividans (Streptomyces lividans). Description: AUC; sedimentation velocity, absorbance at 410 nm, 40,000 rpm, 20°C, 50 mM HEPES pH 7.0, 100 mM NaCl, protein 0.75-0.85 μM, c(S) model in SEDFIT.

Turning to “DtpA, A-type dye-decolorizing peroxidase from Streptomyces lividans (enzyme)”, in assay [1], the proportion of the sedimenting species (ratio), species 1, dimer was 76; the proportion of the sedimenting species (ratio), species 2, tetramer stood at 13; the stoichiometry N (usually a count of units in the complex or per binding partner) is 2 and 4.

Turning to “DtpB, B-type dye-decolorizing peroxidase from Streptomyces lividans (enzyme)”, the stoichiometry N in assay [2] came out at 12. For the same substance, in assay [3], the proportion of the sedimenting species (ratio), species 1, dimer amounted to 2.5; the proportion of the sedimenting species (ratio), species 2, hexamer was determined as 82; the proportion of the sedimenting species (ratio), species 3, dodecamer is 10. Besides, the stoichiometry N in assay [4] was determined as 6.

“DtpAa, A-type dye-decolorizing peroxidase from Streptomyces lividans (enzyme)” registered a stoichiometry N in assay [5] of 2.
